Experimental data reported in patent US20230028110A1 (ADAPTATE BIOTHERAPEUTICS, published 2023).
Where two headings read alike, the source gives them in different places.

What was measured:
Recombinant human MSLN = target: T1, Recombinant human MSLN (human, UniProt Q13421 296-580, limits assumed); assay: SPR, Reichert 4SPR; antibody captured on Protein A chip, human MSLN flown over
T1 construct: also called mesothelin
Method: Recombinant human Vδ1 heterodimer or human MSLN was flown over the cell at a top concentration of 100 nM with the following parameters: 180 s association, 480 s dissociation, flowrate 25 μL/min, running buffer PBS+0.05% Tween 20. All experiments were performed at room temperature.

[1] = target: T2, Vδ1 chain of the γδ TCR on human Vδ1 γδ T cells (human); assay: flow cytometry on Vδ1 γδ T-cells, anti-human IgG secondary antibody, % cells bound IgG
T2 construct: whole, on cells; also called cell surface Vδ1 TCR; Vδ1-positive γδ T cells
T2 sequence (A0A1B0GX56 22-115, stated change not applied): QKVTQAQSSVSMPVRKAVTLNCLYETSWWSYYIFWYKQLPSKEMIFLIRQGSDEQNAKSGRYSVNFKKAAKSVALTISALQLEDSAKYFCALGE
Method: (§1) After washing, cells were incubated for a further 15 minutes with anti-human IgG secondary antibodies before washing and fixing. The amount of antibody bound to each cell type was determined by flow cytometry.

[2] = target: T3, OX40 on activated CD4 T-cells; assay: flow cytometry on anti-CD3/anti-CD28-activated CD4 T-cells, anti-human IgG secondary antibody, % cells bound IgG
T3 construct: also called OX40+ CD4 T-cells
T3 chain: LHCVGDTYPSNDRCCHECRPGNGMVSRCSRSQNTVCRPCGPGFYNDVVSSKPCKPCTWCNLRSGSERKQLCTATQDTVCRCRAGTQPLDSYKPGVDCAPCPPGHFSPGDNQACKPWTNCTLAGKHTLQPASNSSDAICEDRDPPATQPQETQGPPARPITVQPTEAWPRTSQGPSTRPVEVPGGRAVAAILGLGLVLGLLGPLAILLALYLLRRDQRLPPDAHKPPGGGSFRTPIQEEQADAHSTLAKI
Method: Initially CD4+ T-cells were negatively selected by magnetic sorting from PBMC buffy coats extracted from whole blood. Following activation by anti-CD3/anti-CD28 antibodies conjugated to Dynabeads (Invitrogen), cell surface expression of OX40 was elevated on CD4 T-cells. […] After washing, cells were incubated for a further 15 minutes with anti-human IgG secondary antibodies before washing and fixing. The amount of antibody bound to each cell type was determined by flow cytometry.

[3] = target: T4, L1 (DV1-GV4), soluble human Vδ1/Vγ4 γδ TCR heterodimer in leucine zipper format (human); assay: SPR (Reichert 4SPR), antibody on Protein A chip, antigen flown over
T4 construct: Biotinylated in the DELFIA ranking; also called Antigen L1 (TRDV1/TRGV4); human DV1-GV4; not shown: gamma chain: Vγ4 (TRGV4) domain on a TCR constant region, leucine zipper, histidine tag
T4 sequence (main, as listed by the source): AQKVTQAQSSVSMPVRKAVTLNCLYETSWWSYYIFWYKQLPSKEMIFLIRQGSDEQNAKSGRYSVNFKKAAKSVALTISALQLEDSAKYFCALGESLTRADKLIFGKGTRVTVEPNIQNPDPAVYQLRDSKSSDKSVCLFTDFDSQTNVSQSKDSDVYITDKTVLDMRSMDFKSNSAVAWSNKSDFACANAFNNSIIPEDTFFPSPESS

[4] = target: T2, Vδ1 chain of the γδ TCR on human Vδ1 γδ …; assay: cell-based or functional assay
[5] = target: T2, Vδ1 chain of the γδ TCR on human Vδ1 γδ …; assay: flow cytometry on Vδ1 γδ T-cells, anti-human IgG secondary antibody, % cells bound IgG; remark: listed apart in the source
[6] = target: T2, Vδ1 chain of the γδ TCR on human Vδ1 γδ …; assay: cell-based or functional assay; remark: listed apart in the source
Recombinant human FAPα = Recombinant human FAPα (human, UniProt Q12884 26-760); assay: SPR, Reichert 4SPR; antibody captured on Protein A chip, human FAPα flown over
Recombinant human FAPα, sequence (Q12884 26-760 limits assumed): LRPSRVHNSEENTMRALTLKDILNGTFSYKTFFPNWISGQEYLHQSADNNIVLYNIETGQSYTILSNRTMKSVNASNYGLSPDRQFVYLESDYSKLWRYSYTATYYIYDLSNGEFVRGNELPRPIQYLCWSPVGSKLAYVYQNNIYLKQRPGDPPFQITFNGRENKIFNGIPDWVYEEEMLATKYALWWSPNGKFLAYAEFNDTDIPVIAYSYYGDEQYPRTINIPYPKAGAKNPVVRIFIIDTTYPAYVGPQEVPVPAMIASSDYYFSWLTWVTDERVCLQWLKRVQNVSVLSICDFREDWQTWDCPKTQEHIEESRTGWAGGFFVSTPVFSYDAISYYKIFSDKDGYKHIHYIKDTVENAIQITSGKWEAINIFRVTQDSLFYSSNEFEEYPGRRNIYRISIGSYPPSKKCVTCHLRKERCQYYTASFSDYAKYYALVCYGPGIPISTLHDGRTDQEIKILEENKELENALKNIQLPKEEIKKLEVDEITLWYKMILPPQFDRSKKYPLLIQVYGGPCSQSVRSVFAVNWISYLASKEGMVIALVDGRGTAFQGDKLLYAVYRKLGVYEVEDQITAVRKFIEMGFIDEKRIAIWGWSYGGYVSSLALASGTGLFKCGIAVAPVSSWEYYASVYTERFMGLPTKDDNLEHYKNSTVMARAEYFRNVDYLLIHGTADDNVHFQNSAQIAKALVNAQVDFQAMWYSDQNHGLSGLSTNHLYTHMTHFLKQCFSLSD
Method: Recombinant human Vδ1 heterodimer or human FAPα was flown over the cell at a concentration of 100 nM with the following parameters: 180 s association, 480 s dissociation, flowrate 25 μL/min, running buffer PBS+0.05% Tween 20. All experiments were performed at room temperature.

[7] = target: T2, Vδ1 chain of the γδ TCR on human Vδ1 γδ …; assay: flow cytometry on Vδ1 γδ T-cells, anti-human IgG secondary antibody, % cells bound IgG; remark: listed apart in the source
[8] = target: T2, Vδ1 chain of the γδ TCR on human Vδ1 γδ …; assay: flow cytometry on Vδ1 γδ T-cells, anti-human IgG secondary antibody
Method: as §1

[9] = target: T4, L1 (DV1-GV4), soluble human Vδ1/Vγ4 γδ …; assay: SPR (Reichert 4SPR), antibody on Protein A chip, antigen flown over; remark: listed apart in the source
Method: Recombinant human Vδ1 heterodimer or human PD-1 was flown over the cell at a top concentration of 100 nM.

[10] = target: T4, L1 (DV1-GV4), soluble human Vδ1/Vγ4 γδ …; assay: as above; remark: listed apart in the source
Method: Recombinant human Vδ1 heterodimer or human OX40 was flown over the cell at a top concentration of 100 nM.

T1 sequence (Q13421 other isoform, or with tags, fused parts or gaps limits assumed): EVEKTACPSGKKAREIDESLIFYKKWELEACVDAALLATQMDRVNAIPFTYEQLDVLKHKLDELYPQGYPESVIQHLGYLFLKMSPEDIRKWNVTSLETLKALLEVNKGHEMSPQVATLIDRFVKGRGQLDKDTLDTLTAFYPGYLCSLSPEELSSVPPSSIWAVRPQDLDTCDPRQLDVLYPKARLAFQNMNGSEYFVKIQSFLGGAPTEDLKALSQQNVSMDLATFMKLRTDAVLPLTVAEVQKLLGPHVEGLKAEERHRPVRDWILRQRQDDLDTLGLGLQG

binding result (Recombinant human MSLN): no binding | EC50 (read off the curve) [1]: ~0.2 nM | binding result [2]: no binding (tested: 200 nM) | Kd [3]: 0.01 nM | IC50 (read off the curve), Vδ1 TCR downregulation, γδ T-cells with FAPα+ fibroblasts [4]: ~2 nM | EC50 (read off the curve) [5]: ~0.2 nM | IC50 (read off the curve), Vδ1 TCR downregulation, γδ T-cells alone [6]: ~0.1 nM | binding result (Recombinant human FAPα): no binding | EC50 (read off the curve) [7]: ~0.2 nM | EC50 (read off the curve) [8]: ~5 nM | Kd [9]: 0.29 nM | Kd [10]: 1.25 nM
B1: ADT1-4-2 (antibody, IgG1, V domains shown)
VH: EVQLQQSGPGLVKPSQTLSLTCAISGDSVSSKSAAWNWIRQSPSRGLEWLGRTYYRSKWSTDYAASVKSRITINPDTSKNQLSLQLNSVTPEDTAVYYCARTWVGYVDRWGQGTLVTVSS
VL: DIQMTQSPPALSASVGDRVTITCRASQDINDWLAWYQHKPGKAPKLLIYDASSLESGVPLRFSGSGSGTEFTLTISSLQPDDFATYYCQQKYSAPQVTFGQGTRLEIK
notes: IgG1
